This experiment has as its system CD34+. The experiment is described as follows: CD34+ proliferation assays. It counts as cell-based. Conditions: proteins purified from plants. The protocol:
The vectors were used to inoculate plant leaves of different sets of plants as described in the examples above. Both plant homogenates and interstitial fluid were extracted as described above. hSCF and pSCF were each purified from 27 plants to yield 0.85 mg (˜15 mg/kg) and 2.5 mg (˜45 mg/kg) of protein respectively.

B1: pSCF: porcine Stem Cell growth Factor expressed in plants from GENEWARE vector (protein)
chain: QGICRNRVTDDVKDVTKLVANLPKDYKITLKYVPGMDVLPSHCWISEMVEQLSVSLTDLLDKFSNISEGLSNYSIIDKLVKIVDDLVECMEEHSFENVKKSSKSPEPRLFTPEKFFGIFNRSIDAFKDLEMVAPKTSECVISSTLTPEKDSRVSVTKPFMLPPVAA
As to B1, the “biological activity in CD34+ proliferation assays” value is recorded as “biologically active”.

The values are drawn from patent publication US20040106198A1, “Inhibition of peptide cleavage in plants” (LARGE SCALE BIOLOGY CORPORATION, priority 2002, published 2004).
